Test results as given in paper PMC4158924.

Target: K12-acetylated histone H4 tail peptide (residues 1–20), biotinylated at the C-terminus (UniProt P62805)
Test: SPR

- Kd: 300 µM
Substance: second bromodomain of human BRD2 (BRD2-BD2: residues 348–455) (from UniProt P25440 348-455) (domain or fragment)
